Target: T1, purified full length CFTR (UniProt P13569 1-1480)
T1 construct: cystic fibrosis transmembrane conductance regulator, full length, called Wt-CFTR in the SPR methods; also called pure CFTR; Wt-CFTR; source: purified, gift from Pr Robert Ford (University of Manchester, UK)
Assay: SPR; Biacore 3000, calumenin amine-coupled to a CM5 chip (about 2000 RU), CFTR injected at 0.15 to 1.5 nM, 5 µl/min, HBS-EP pH 7.4, 25°C, triplicate
Conditions: both partners purified

T1 sequence (P13569 whole entry): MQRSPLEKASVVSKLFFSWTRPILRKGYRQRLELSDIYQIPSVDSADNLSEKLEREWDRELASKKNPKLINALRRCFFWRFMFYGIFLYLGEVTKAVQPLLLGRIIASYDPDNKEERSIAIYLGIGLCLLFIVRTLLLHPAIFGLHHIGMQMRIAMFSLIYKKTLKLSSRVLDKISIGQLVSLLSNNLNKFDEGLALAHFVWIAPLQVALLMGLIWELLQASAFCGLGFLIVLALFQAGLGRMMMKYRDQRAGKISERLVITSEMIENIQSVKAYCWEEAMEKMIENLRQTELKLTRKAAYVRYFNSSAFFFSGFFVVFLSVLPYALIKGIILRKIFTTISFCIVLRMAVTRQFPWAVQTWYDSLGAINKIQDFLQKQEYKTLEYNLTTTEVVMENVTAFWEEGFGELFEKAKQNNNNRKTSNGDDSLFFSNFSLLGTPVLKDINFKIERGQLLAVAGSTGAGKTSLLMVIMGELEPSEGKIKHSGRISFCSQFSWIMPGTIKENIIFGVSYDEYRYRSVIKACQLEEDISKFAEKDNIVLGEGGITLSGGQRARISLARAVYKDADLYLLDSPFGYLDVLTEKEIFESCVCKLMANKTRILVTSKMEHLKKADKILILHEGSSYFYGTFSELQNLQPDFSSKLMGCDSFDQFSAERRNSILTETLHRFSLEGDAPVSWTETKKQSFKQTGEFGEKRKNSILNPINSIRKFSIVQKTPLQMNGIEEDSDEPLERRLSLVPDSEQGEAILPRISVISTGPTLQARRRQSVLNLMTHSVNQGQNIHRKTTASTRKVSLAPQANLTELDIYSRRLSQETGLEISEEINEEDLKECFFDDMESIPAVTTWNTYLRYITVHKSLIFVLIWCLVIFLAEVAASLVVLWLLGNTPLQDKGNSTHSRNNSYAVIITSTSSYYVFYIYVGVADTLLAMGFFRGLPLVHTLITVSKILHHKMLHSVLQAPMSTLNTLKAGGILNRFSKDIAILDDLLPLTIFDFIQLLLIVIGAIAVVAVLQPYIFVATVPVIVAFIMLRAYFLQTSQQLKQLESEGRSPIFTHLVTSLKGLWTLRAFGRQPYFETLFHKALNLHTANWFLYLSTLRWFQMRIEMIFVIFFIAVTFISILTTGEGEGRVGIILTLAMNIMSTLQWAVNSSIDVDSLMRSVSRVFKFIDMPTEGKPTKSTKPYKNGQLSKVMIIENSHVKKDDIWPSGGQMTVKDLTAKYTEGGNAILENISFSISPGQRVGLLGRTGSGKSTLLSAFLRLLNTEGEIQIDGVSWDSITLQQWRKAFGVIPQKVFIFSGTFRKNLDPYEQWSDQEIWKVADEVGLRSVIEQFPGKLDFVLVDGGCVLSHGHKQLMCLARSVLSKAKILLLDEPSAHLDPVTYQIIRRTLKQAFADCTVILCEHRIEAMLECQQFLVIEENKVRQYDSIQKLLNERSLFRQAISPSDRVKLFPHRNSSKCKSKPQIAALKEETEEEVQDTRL

Kd: 3.8 pM
B1: Pure recombinant human calumenin (natural protein, UniProt O43852 20-315, looked up)
chain: KPTEKKDRVHHEPQLSDKVHNDAQSFDYDHDAFLGAEEAKTFDQLTPEESKERLGKIVSKIDGDKDGFVTVDELKDWIKFAQKRWIYEDVERQWKGHDLNEDGLVSWEEYKNATYGYVLDDPDPDDGFNYKQMMVRDERRFKMADKDGDLIATKEEFTAFLHPEEYDYMKDIVVQETMEDIDKNADGFIDLEEYIGDMYSHDGNTDEPEWVKTEREQFVEFRDKNRDGKMDKEETKDWILPSDYDHAEAEARHLVYESDQNKDGKLTKEEIVDKYDLFVGSQATDFGEALVRHDEF
notes: calumenin, human, recombinant; No catalogue number, host, limits or tag are printed; also called pure calumenin; source: bought: Prospec (Israel)
